Assay results published in patent US20040214227A1, “Bioluminescence resonance energy transfer (bret) fusion molecule and method of use” (priority 1999, published 2004).

Legend:
[1] = system: HeLa cells transfected with the GFP1:Caspase-3:Rluc sensor; assay: apoptosis induction BRET assay, GFP1:Caspase-3:Rluc sensor; type: cell-based; conditions: 1 μM staurosporine, 5 hours, 37° C.; DeepBlueC; at time zero; ratio decreased
Method: (§1) PGFP1:caspase-3:Rluc DNAs and the original plasmid pGFP1::Rluc (without the caspase-3 site) were transfected into HeLa cell using LipofectAMINE (BRL/Gibco-Life technologies) in 100 mm dishes and 8 μg of plasmid DNA as described in the manufacturer's protocol. Twenty-four hours post-transfection transfected cells were harvested and distributed into 96-well microtiterplate (white Optiplate from Packard) at a density of 30 000 cells per well. The following day, cells were washed with PBS and were induced to undergo apoptosis by adding 100 μl of Iscove media without serum and phenol red (BRL/Life Technologies) containing staurosporine at a final concentration of 1 μM (+inducer; see FIG. 13) or 100 μl of Iscove alone (-inducer). Cells were incubated for 5 hours at 37° C. After this period, 50 μl of BRET buffer (PBS Ca^2+/Mg^2++glucose without aprotinin) and 50 μl of DeepBlueC (20 μM) were added to start the bioluminescence reaction. Total assay volume was 200 μl. Light emissions were detected using the BRETCount (read length of 1 sec. for each filter, SPC mode, temperature 25° C.).

[2] = system: HeLa cells transfected with pGFP1::Rluc; assay: apoptosis induction BRET assay, control construct without caspase-3 site; type: cell-based; conditions: 1 μM staurosporine, 5 hours
Method: as §1

[3] = system: HeLa cells transfected with the apoptosis Rluc:Caspase:EYFP sensor; assay: apoptosis induction BRET assay, Rluc:Caspase:EYFP sensor; type: cell-based; conditions: 1 μM staurosporine, 5 hours, 37° C.; coelenterazine h; ratios decreased
Method: pCEP4/Rluc-EYFP and pCEP4/Rluc-caspase-EYFP DNAs were transfected into HeLa cell using LipofectAMINE (BRL/Gibco-Life technologies) in 100 mm dishes as described in the manufacturer's protocol. 24 hours post-transfection, transfected cells were harvested and distributed into 96-well microtiterplates (white Optiplate from Packard) at a density of 30,000 cells per well. The following day, cells were induced to undergo apoptosis using 1 μM staurosporine dissolved in ISCOVE media (BRL/Gibco-Life technologies) without serum and phenol red at 37° C. (total volume here is 100 μl) for 5 hours. 50 μl of BRET buffer (PBS Ca^2+/Mg^2++glucose without aprotinin) and 50 μl of coelenterazine h (20 μM) were added to start the bioluminescence reaction. Light emissions were detected using the BRETCount (read length 1 sec for each filter, temperature 25° C.). Data was collected 10 minutes after the addition of coelenterazine h. The assay was done in quadruplicate.

[4] = molecular target: GFP1:caspase-3:Rluc fusion protein expressed in HeLa cells (pGFP1:caspase-3:Rluc) (Aequorea victoria; Renilla) [GFP: P42212]; assay: cell-based or functional assay
[5] = molecular target: Rluc:caspase:EYFP fusion protein expressed in HeLa cells (pCEP4/Rluc-caspase-EYFP) (Renilla) (UniProt P27652); assay: cell-based or functional assay
Chain of Rluc:caspase:EYFP fusion protein expressed in HeLa cells (pCEP4/Rluc-caspase-EYFP) (Renilla) (P27652 other isoform, or with tags, fused parts or gaps): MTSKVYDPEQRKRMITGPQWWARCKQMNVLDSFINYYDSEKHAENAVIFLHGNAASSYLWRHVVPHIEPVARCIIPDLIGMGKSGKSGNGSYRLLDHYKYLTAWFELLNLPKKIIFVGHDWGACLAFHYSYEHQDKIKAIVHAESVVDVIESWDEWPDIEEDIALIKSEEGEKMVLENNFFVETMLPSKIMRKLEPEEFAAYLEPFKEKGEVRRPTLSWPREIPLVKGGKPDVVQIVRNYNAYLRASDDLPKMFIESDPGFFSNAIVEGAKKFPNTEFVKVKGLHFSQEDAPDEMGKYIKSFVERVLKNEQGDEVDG

[6] = molecular target: Rluc:enterokinase:EYFP fusion protein, N-terminal His tag, purified from bacteria (pQE-32) (UniProt P27652)
Chain of Rluc:enterokinase:EYFP fusion protein, N-terminal His tag, purified from bacteria (pQE-32) (P27652 other isoform, or with tags, fused parts or gaps): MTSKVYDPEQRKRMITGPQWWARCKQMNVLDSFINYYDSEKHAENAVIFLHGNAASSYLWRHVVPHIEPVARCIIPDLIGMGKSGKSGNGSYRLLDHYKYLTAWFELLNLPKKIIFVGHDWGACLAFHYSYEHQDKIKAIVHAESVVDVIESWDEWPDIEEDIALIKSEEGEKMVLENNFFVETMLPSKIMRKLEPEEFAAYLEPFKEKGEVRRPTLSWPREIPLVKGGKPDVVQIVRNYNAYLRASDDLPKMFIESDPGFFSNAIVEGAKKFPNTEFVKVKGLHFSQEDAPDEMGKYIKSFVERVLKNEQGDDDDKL

[7] = molecular target: Rluc:EYFP fusion protein, N-terminal His tag, purified from bacteria (pQE-32) (UniProt P27652)
Chain of Rluc:EYFP fusion protein, N-terminal His tag, purified from bacteria (pQE-32) (P27652 whole entry, the tested form may be a part): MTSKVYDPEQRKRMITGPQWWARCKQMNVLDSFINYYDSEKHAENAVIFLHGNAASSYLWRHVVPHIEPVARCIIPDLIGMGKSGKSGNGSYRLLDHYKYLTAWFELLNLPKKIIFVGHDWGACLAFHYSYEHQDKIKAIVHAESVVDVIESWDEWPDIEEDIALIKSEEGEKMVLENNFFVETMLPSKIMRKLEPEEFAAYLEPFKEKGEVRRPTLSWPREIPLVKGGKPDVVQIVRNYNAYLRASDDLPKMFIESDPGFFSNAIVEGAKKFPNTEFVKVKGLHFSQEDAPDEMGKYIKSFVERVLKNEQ

Q: How did the BRET ratio change [1] turn out when CN[C@@H]1C[C@H]2O[C@@](C)([C@@H]1OC)n1c3ccccc3c3c4c(c5c6ccccc6n2c5c31)C(=O)NC4 [staurosporine] was run?
A: Its BRET ratio change is 0.72 unit.

Q: And the “change in BRET ratio” value [2]?
A: Its value is “No change in BRET ratio”.

Q: What about the BRET ratio change [3] of the same compound?
A: Its BRET ratio change is 0.1 unit.

Q: “cellular caspase-3 (HeLa cells) (from UniProt P42574 29-277) (enzyme)” was tested. Which BRET ratio change in transfected HeLa cells after 5 hours of apoptosis induction by 1 uM staurosporine (unit (BRET ratio)) [4] did it give?
A: Its BRET ratio change in transfected HeLa cells after 5 hours of apoptosis induction by 1 uM staurosporine (unit (BRET ratio)) is 0.72.

Q: What about the BRET ratio change in transfected HeLa cells after 5 hours of apoptosis induction by 1 uM staurosporine (unit (BRET ratio)) [5] of the same compound?
A: The BRET ratio change in transfected HeLa cells after 5 hours of apoptosis induction by 1 uM staurosporine (unit (BRET ratio)) was 0.1.

Q: What does the source list for “enterokinase enzyme (Invitrogen, Carlsbad, Calif.)”?
A: BRET ratio (emission at 550 nm / 470 nm) over four hours, purified protein with two units of enterokinase [6]: Only the ratio for the construct Rluc:enterokinase:EYFP in the presence of the enterokinase enzyme decreased over time; BRET ratio (emission at 550 nm / 470 nm) over four hours, purified protein with two units of enterokinase [7]: The ratios from the negative controls (Rluc and Rluc:EYFP) did not change over time when in the presence or absence of the enterokinase enzyme
